Among the data in doi:10.1101/2022.05.18.492403 are stoichiometry N values, retold here.

In this test the target is recombinant C-terminal StrepII-tagged SbtB from Synechocystis sp. PCC 6803 (ScSbtB), wildtype (Synechocystis sp. PCC 6803), P73954. Description: crystal structure. Particulars: remark: other sources report otherwise.

B1: recombinant C-terminal StrepII-tagged SbtB from Synechocystis sp. PCC 6803 (ScSbtB), wildtype, P73954 1-110 (natural protein)
chain: MAKPANKLVIVTEKILLKKIAKIIDESGAKGYTVMNTGGKGSRNVRSSGQPNTSDIEANIKFEILTETREMAEEIADRVAVKYFNDYAGIIYICSAEVLYGHTFCGPEGC
As a reminder, the stoichiometry N is a count of units in the complex or per binding partner. Consider B1, for which the stoichiometry N is 3.
